Data published in patent US20160326264A1 (SORRENTO THERAPEUTICS, published 2016).

Legend:
[1] = target: T1, endogenous human PSMA (prostate-specific membrane antigen) expressed on LNCaP human prostate cancer cells (human, UniProt Q04609 1-750); assay: flow cytometry on LNCaP cells
T1 construct: whole, on cells; also called PSMA-expressing LNCaP cells
Procedure: PSMA expressing LNCaP cells were harvested with enzyme-free Cell Dissociation Buffer (GIBCO) and transferred to V-Bottom 96 well-plates (50,000 cells/well). Cells were incubated on ice for 45 min with serial dilutions of anti-PSMA antibodies PSGB11, PSGB12, PSGC12, PSGD4, PSGD6 and PSA11 in FACS buffer (PBS+ 2% FBS)+NaN₃. […] After 1 wash in FACS buffer, a 1:1000 dilution of Phycoerythrin conjugated anti-Human IgG (γ-chain specific) was added and incubated for 30 min Following a final wash, fluorescence intensity was measured on an Intellicyt High Throughput Flow Cytometer (HTFC).
Data were analyzed using Graphpad Prism software and non-linear regression fit. Data points are shown as the median fluorescence intensity (MFI) of positively labeled cells +/−Standard Error. EC₅₀ values are reported as the concentration of antibody to achieve 50% of maximal PSMA antibodies binding to PSMA expressing cells.

[2] = target: T1, endogenous human PSMA …; assay: cell-based or functional assay
[3] = target: T2, recombinant human PSMA/His (human, UniProt Q04609 44-750); assay: BLI (Octet), antibody amine-coupled to AR2G sensor, PSMA/His in solution, 1:1 model; FIG. 3, antibody PSA11
T2 construct: not shown: His tag
Procedure: (§1) Specifically, an amine Reactive Second-Generation (AR2G) sensor was coated with antibody (15 ug/ml in acetic buffer, pH5.0) using Sulfo-N-hydroxysuccinimide/N-Ethyl-N′-(3-dimethylaminopropyl)carbodiimide hydrochloride (Sulfo-NHS/EDC) coupling methodology. The sensors were quenched with 1M pH 8.5 ethanolamine Data was collected by moving sensors to serially diluted recombinant human PSMA/His (in PBS buffer) wells, then the data was dissociated by transferring the sensors to PBS wells. A 1:1 binding model was used to fit the data.

[4] = target: T2, recombinant human PSMA/His; assay: Octet biolayer interferometry, antibody amine-coupled to AR2G sensor, recombinant human PSMA/His in solution at 0.75 to 48.1 nM, global 1:1 fit (same value in all 7 rows)
Procedure: as §1

[5] = target: T2, recombinant human PSMA/His; assay: Octet biolayer interferometry, antibody amine-coupled to AR2G sensor, recombinant human PSMA/His in solution at 0.75 to 48.1 nM, global 1:1 fit; column headed kdis(1/s) (same value in all 7 rows)
Procedure: as §1

T1 sequence (Q04609 whole entry): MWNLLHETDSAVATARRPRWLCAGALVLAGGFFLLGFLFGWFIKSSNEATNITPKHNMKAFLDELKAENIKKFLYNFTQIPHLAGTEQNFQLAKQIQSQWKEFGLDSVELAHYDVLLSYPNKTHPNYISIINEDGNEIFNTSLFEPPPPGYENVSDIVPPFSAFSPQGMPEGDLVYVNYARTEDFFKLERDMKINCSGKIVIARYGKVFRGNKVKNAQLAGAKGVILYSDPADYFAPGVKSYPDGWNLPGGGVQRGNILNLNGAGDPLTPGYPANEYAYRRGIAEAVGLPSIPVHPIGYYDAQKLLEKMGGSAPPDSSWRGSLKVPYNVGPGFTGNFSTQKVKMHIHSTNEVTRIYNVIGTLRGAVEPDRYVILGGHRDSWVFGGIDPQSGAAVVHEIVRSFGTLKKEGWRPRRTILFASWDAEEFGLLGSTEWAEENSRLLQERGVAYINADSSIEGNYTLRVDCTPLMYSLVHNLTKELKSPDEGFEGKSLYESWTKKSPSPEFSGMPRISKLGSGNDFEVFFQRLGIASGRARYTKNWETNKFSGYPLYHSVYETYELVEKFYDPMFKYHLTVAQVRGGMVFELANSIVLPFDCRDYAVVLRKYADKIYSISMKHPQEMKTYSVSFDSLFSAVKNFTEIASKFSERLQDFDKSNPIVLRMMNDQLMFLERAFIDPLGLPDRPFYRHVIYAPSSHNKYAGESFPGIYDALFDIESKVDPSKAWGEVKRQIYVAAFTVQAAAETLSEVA
T2 sequence (Q04609 44-750 limits assumed): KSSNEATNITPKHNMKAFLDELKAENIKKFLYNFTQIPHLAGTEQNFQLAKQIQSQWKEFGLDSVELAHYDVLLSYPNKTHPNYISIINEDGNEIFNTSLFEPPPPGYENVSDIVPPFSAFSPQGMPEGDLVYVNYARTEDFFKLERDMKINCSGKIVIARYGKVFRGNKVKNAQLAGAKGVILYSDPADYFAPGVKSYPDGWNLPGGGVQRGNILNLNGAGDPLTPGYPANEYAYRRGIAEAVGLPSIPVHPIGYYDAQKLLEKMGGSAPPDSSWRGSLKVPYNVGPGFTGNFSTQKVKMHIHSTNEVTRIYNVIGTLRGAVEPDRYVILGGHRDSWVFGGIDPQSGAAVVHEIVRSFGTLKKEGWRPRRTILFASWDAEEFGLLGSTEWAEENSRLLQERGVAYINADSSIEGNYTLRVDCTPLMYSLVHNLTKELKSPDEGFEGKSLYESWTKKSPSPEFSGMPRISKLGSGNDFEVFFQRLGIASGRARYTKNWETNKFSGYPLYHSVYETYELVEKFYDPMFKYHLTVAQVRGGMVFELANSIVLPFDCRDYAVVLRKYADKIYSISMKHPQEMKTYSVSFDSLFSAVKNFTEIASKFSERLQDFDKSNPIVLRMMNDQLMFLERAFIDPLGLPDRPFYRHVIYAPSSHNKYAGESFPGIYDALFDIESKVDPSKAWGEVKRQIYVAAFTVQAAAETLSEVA

Binder	EC50 [1] [nM]	Cell killing, 2-hours-wash method (IC50, nM); antibody pre-complexed with Protein G-MMAF, LNCaP cells, Cell Titer Glo [2] [nM]	Cell killing, No wash method (IC50, nM); antibody pre-complexed with Protein G-MMAF, LNCaP cells, Cell Titer Glo [2] [nM]	Kd [3] [nM]	Kd [4] [nM]	kon [4] [M⁻¹ s⁻¹]	koff [5] [s⁻¹]
anti-PSMA antibody PSGD6 (antibody, V domains shown, Fully human IgG) VH: QVQLVQSGGGLVQPGGSLRLSCAASGFTFSSYWMSWVRQAPGKGLEWVANIKQDGSEKYYVDSVKGRFTISRDNAKNSLYLQMNSLRAEDTAVYYCARVWDYYYDSSGDAFDIWGQGTMVTVSS VL: DIVMTQSPSSVSASVGDRVTITCRASQAISSWLAWYQQKPGKAPKLLIYAASSLQSGVPSRFSGSGSGTDFTLTISSLQPEDFATYYCQQAYSFPVTFGPGTKVDIK	1.92	1.13	0.04	–	–	–	–
anti-PSMA antibody PSGD3 (antibody, V domains shown, Fully human IgG) VH: QVQLVQSGGGLVQPGGSLRLSCAASGFTFSSYWMSWVRQAPGKGLEWVANIKQDGSEKYYVDSVKGRFTISRDNAKNSLYLQMNSLRAEDTAVYYCARVWDYYYDSSGDAFDIWGQGTMVTVSS VL: DIVMTQSPSSVSASVGDRVTITCRASQDINNWLAWYQQKAGKAPKLLIYVATKLQNGVPSRFSGSGSGTDFTLSISNLQPEDFATYYCQQAKSFPYTFGQGTKLEIK	3.15	2.24	0.12	–	–	–	–
anti-PSMA antibody PSGC9 (antibody, V domains shown, Fully human IgG) VH: QVQLVQSGGGLVQPGGSLRLSCAASGFTFSSYWMSWVRQAPGKGLEWVANIKQDGSEKYYVDSVKGRFTISRDNAKNSLYLQMNSLRAEDTAVYYCARVWDYYYDSSGDAFDIWGQGTMVTVSS VL: AIRMTQSPSTLSASVGDRVTITCRASQNIYGWLAWYQQKPGKAPELLIYAASSLQSGVPSRFSGSGSGTDFTLTINSLQPEDFATYYCQQSYTIPFTFGPGTKVDIK	2.05	1.22	0.06	–	–	–	–
anti-PSMA antibody PSGC12 (antibody, V domains shown, Fully human IgG) VH: QVQLVQSGGGLVQPGGSLRLSCAASGFTFSSYWMSWVRQAPGKGLEWVANIKQDGSEKYYVDSVKGRFTISRDNAKNSLYLQMNSLRAEDTAVYYCARVWDYYYDSSGDAFDIWGQGTMVTVSS VL: DIVMTQSPSSVSASVGDRVTITCRASQDVGTWLAWYQQKPGRAPKLLIYVASSLQSGVPSRFSGSGSGTDFTLTISSLQPEDSATYYCQQAKGIPYTFGQGTKLEIK	2.84	–	–	–	–	–	–
anti-PSMA antibody PSGG6 (antibody, V domains shown, Fully human IgG) VH: QVQLVQSGGGLVQPGGSLRLSCAASGFTFSSYWMSWVRQAPGKGLEWVANIKQDGSEKYYVDSVKGRFTISRDNAKNSLYLQMNSLRAEDTAVYYCARVWDYYYDSSGDAFDIWGQGTMVTVSS VL: EIVLTQSPSSLSASVGDRVTITCRASQGISSYLAWYQQKPGKAPKLLIYAASTLQSGVPSRFSGSGSGTDFTLTISSLQPEDFATYYCQQLNSYPRGITFGQGTKLEIK	1.3	–	–	–	–	–	–
anti-PSMA antibody PSGC8 (antibody, V domains shown, Fully human IgG) VH: QVQLVQSGGGLVQPGGSLRLSCAASGFTFSSYWMSWVRQAPGKGLEWVANIKQDGSEKYYVDSVKGRFTISRDNAKNSLYLQMNSLRAEDTAVYYCARVWDYYYDSSGDAFDIWGQGTMVTVSS VL: AIRMTQSPSSVSASVGDRVTITCRASQGISSWLAWYQQKPGKAPKLLIYAASSLQSGVPSRFSGSGSGTDFTLTISSLKPEDFATYYCQQANSFPRALTFGGGTKVEIK	3.84	–	–	–	–	–	–
anti-PSMA antibody PSGB12 (antibody, V domains shown, Fully human IgG) VH: QVQLVQSGGGLVQPGGSLRLSCAASGFTFSSYWMSWVRQAPGKGLEWVANIKQDGSEKYYVDSVKGRFTISRDNAKNSLYLQMNSLRAEDTAVYYCARVWDYYYDSSGDAFDIWGQGTMVTVSS VL: DVVMTQSPSTLSASVGDRVTITCRASQSISSWLAWYQQKPGKAPKLLIFAASSLQSGVPSRFSGSGSGTDFALTISSLQPEDFATYYCQESYSIPWTFGQGTKVEIK	3.46	1.66	0.05	–	–	–	–
anti-PSMA antibody PSGD4 (antibody, V domains shown, Fully human IgG) VH: QVQLVQSGGGLVQPGGSLRLSCAASGFTFSSYWMSWVRQAPGKGLEWVANIKQDGSEKYYVDSVKGRFTISRDNAKNSLYLQMNSLRAEDTAVYYCARVWDYYYDSSGDAFDIWGQGTMVTVSS VL: DIVMTQSPSSLSASVGDRVSITCRASQGISTWLAWYQQKPGKAPDLLIYAASNLQSGVPSRFSGSGSGTDFTLTISSLQPEDFATYYCQQANSFPLTFGGGTKVEIK	1.59	2.09	0.06	–	–	–	–
anti-PSMA antibody PSA11 (antibody, V domains shown, Fully human IgG (detected with anti-human IgG, gamma-chain specific)) VH: QVQLVQSGGGLVQPGGSLRLSCAASGFTFSSYWMSWVRQAPGKGLEWVANIKQDGSEKYYVDSVKGRFTISRDNAKNSLYLQMNSLRAEDTAVYYCARVWDYYYDSSGDAFDIWGQGTMVTVSS VL: VIWMTQSPSSVSASVGDRVTITCRASQGISSWLAWYQQKPGKAPKLLIYAASNLQSGVPSRFSGSGSGTDFTLTISSLQPEDFATYYCQQANSFPLTFGGGTKVDIK	2.4	1.55	0.08	~0.67	0.681	88100	6e-05
anti-PSMA antibody PSGE10 (antibody, V domains shown, Fully human IgG) VH: QVQLVQSGGGLVQPGGSLRLSCAASGFTFSSYWMSWVRQAPGKGLEWVANIKQDGSEKYYVDSVKGRFTISRDNAKNSLYLQMNSLRAEDTAVYYCARVWDYYYDSSGDAFDIWGQGTMVTVSS VL: DVVMTQSPSSVSASVGDRVTITCRASQGISSWLAWYQQKPGKAPKLLIYAASTLQSGVPSRFSGSGSGTDFTLTINNLQPEDFATYYCQQTASFPINFGGGTKVEIK	1.92	1.58	0.08	–	–	–	–
anti-PSMA antibody PSGH3 (antibody, V domains shown, Fully human IgG) VH: QVQLVQSGGGLVQPGGSLRLSCAASGFTFSSYWMSWVRQAPGKGLEWVANIKQDGSEKYYVDSVKGRFTISRDNAKNSLYLQMNSLRAEDTAVYYCARVWDYYYDSSGDAFDIWGQGTMVTVSS VL: DIVMTQSPSSVSASVGDRVTITCRASQGISNWLAWYQQKPGKAPKLLIYVASSLQSGVPSRFSGSGSGTDFTLTISSLQPEDFATYYCQQANSFPITFGQGTRLEIK	3.72	1.51	0.06	–	–	–	–
anti-PSMA antibody PSGH8 (antibody, V domains shown, Fully human IgG) VH: QVQLVQSGGGLVQPGGSLRLSCAASGFTFSSYWMSWVRQAPGKGLEWVANIKQDGSEKYYVDSVKGRFTISRDNAKNSLYLQMNSLRAEDTAVYYCARVWDYYYDSSGDAFDIWGQGTMVTVSS VL: DIVMTQSPSSLSASVGDRVTITCRASQGISSWLAWYQQKPGKAPKLLIYAASSLQSGVPSRFSGSGSGTDFTLTINSLQPEDFATYYCQQASGFPFTFGPGTKVDIK	2.13	–	–	–	–	–	–
anti-PSMA antibody PSGF9 (antibody, V domains shown, Fully human IgG) VH: QVQLVQSGGGLVQPGGSLRLSCAASGFTFSSYWMSWVRQAPGKGLEWVANIKQDGSEKYYVDSVKGRFTISRDNAKNSLYLQMNSLRAEDTAVYYCARVWDYYYDSSGDAFDIWGQGTMVTVSS VL: AIQMTQSPSSVSASVGDRVTITCRASQGISSWLAWYQQKPGKAPKLLIYAASSLQSGVPSRFSGSGSGTDFTLTISSLQPEDIATYYCQESYSTPFTFGPGTKVDIK	2.08	1.33	0.13	–	–	–	–
